# Source: patent US20230303654A1 (CITY OF HOPE, published 2023)
# Molecular target: purified 6× His-tagged SARS-CoV-2 spike protein (ELISA coat, Example 12) (SARS-CoV-2, UniProt P0DTC2 14-1213)
row,Binder,EC50 [nM]
1,Anti-spike RBD Ab36 scFv (scFv) scFv: ELVMTQSPSSVSASVGDRVTITCRASQAIGSWLAWYQQKPGKAPKLLISSASSLQSGVPSRFSGSGSGTDFTLTISSLQPEDFATYYCQQLDSYPVTFGPGTKVDIKGGSSRSSEVQLLESGGGLIQPGGSLRLSCAASGLTVSSNYMSWVRQAPGKGLEWVSVIYSGGSTYYADSVKGRFTISRDNSKNTLYLQMNSLRAEDTAVYYCARAIDSGAFDIWGQGTMVTVSSGSASAPTL,31.2
2,Anti-spike RBD Ab38 scFv (scFv) scFv: ELQMTQSPSSLSASVGDRVTITCRASQSISSYLNWYQQKPGKAPKLLIYAASSLQSGVPSRFSGSGSGTDFTLTISSLQPEDFATYYCQQANSFPLTFGGGTKVEIKGGSSRSSQVQLVQSGAEVKKPGSSVKVSCKASGGTLSENGFSWVRQAPGQGLEWMGRIVPMFDISNYAERFQDRVTITADGSTNTAYMELRSLRLEDTAVYYCARDAVATSPGVYQHYGMDVWGQGTTVTVSSASTKGPSV,10.6

# Molecular target: purified 6× His-tagged SARS-CoV-2 spike protein (ELISA coat, Example 12) (SARS-CoV-2, UniProt P0DTC2 14-1213)
# Remark: another data set of the same source
row,Binder,EC50 [nM]
1,"ab19 (scFv, V domains shown) VH: EVQLVESGAEVKKPGESLKISCKGSGYSFTSYWIGWVRQMPGKGLEWMGIIYPGDSDTRYSPSFQGQVTISADKSISTAYLQWSSLKASDTAMYYCARRGDLDAFDIWGQGTMVTVSS VL: QPGLTQPPAASGTPGQRVTVSCSGASANIGSNAVSWFKQFPETAPRLLISGNTHRPSGVPDRVSGSKSGTSASLTISGLQSDDEADYYCAAWDDSLNGYVFGSGTKVTVL",24.2
2,"ab31 (scFv, V domains shown) VH: EVQLVESGAEVKKPGESLKISCKGSGYTFTRYWIGWVRQMPGKGLEWMGIIYPGDLDTRYSPSFQGHVTISADKSISTAYLQWNSLKASDTAMYYCARLPQYCYKGVCKRWFDPWGQGTLVTVSS VL: EIVLTQSPSSVSASVGDRVTITCRASQGIRSWLAWYQQKPGKAPKLLIYAASSLQSGVPSRFSGSGSGTDFTLTISSLQPEDFATYYCQQGHSVPYTFGQGTNLEIK",40.4
3,"ab47 (scFv, V domains shown) VH: EVQLVESGAEVKKPGESLKISCKGSGYTFTRYWIGWVRQMPGKGLEWMGIIYPGDSDTRYSPSFQGHVTISADKSISTAYLQWNSLKASDTAMYYCARLPQYCQNGVCHRWFDPWGQGTLVTVSS VL: EIVLTQSPSSVSASVGDRVTITCRASQGIRNWLAWYQQKPGKAPKLLIYAASSLQSGVPSRFSGSGSGTDFTLTISSLQPEDFATYYCQQGDQDPLTFGQGTNLEIK",81.7
4,"ab34 (scFv, V domains shown) VH: EVQLVESGAEVKKPGESLKISCKGSGYTFTRYWIGWVRQMPGKGLEWMGIIYPGDADVRYSPSFQGHVTISADKSISTAYLQWNSLKASDTAMYYCARLPQYCRKGVCKRWFDPWGQGTLVTVSS VL: EIVLTQSPSSVSASVGDRVTITCRASQGIRSWLAWYQQKPGKAPKLLIYAASSLQSGVPSRFSGSGSGTDFTLTISSLQPEDFATYYCQQGHSTPYTFGQGTNLEIK",22.7
5,"ab41 (scFv, V domains shown) VH: EVQLVESGAEVKKPGESLKISCKGSGYTFTRYWIGWVRQMPGKGLEWMGIIYPGDNDVRYSPSFQGHVTISADKSISTAYLQWNSLKASDTAMYYCARLPQYCSAGVCFRWFDPWGQGTLVTVSS VL: EIVLTQSPSSVSASVGDRVTITCRASQGISNWLAWYQQKPGKAPKLLIYAASSLQSGVPSRFSGSGSGTDFTLTISSLQPEDFATYYCQQGYSYPYTFGQGTNLEIK",34.1
6,"ab40 (scFv, V domains shown) VH: EVQLVESGAEVKKPGESLKISCKGSGYTFTRYWIGWVRQMPGKGLEWMGIIYPGDSETRYSPSFQGHVTISADKSISTAYLQWNSLKASDTAMYYCARLPQYCRSGVCQRWFDPWGQGTLVTVSS VL: EIVLTQSPSSVSASVGDRVTITCRASQGISSWLAWYQQKPGKAPKLLIYAASSLQSGVPSRFSGSGSGTDFTLTISSLQPEDFATYYCQQGNQVPYTFGQGTNLEIK",40
7,"ab32 (scFv, V domains shown) VH: EVQLVESGAEVKKPGESLKISCKGSGYTFTRYWIGWVRQMPGKGLEWMGIIYPGDSETRYSPSFQGHVTISADKSISTAYLQWNSLKASDTAMYYCARLPQYCRRGVCKRWFDPWGQGTLVTVSS VL: EIVLTQSPSSVSASVGDRVTITCRASQGISSWLAWYQQKPGKAPKLLIYAASSLQSGVPSRFSGSGSGTDFTLTISSLQPEDFATYYCQQGNQLPYTFGQGTNLEIK",13.1
8,"ab48 (scFv, V domains shown) VH: EVQLVESGAEVKKPGESLKISCKGSGYTFTRYWIGWVRQMPGKGLEWMGIIYPGDNDVRYSPSFQGHVTISADKSISTAYLQWNSLKASDTAMYYCARLPQYCDKGICKRWFDPWGQGTLVTVSS VL: EIVLTQSPSSVSASVGDRVTITCRASQGISSWLAWYQQKPGKAPKLLIYAASSLQSGVPSRFSGSGSGTDFTLTISSLQPEDFATYYCQQGDQLPYTFGQGTNLEIK",1560
9,"ab49 (scFv, V domains shown) VH: EVQLVESGAEVKKPGESLKISCKGSGYTFTRYWIGWVRQMPGKGLEWMGIIYPGDSDTRYSPSFQGHVTISADKSISTAYLQWNSLKASDTAMYYCARLPQYCENGICKRWFDPWGQGTLVTVSS VL: EIVLTQSPSSVSASVGDRVTITCRASQGIRSWLAWYQQKPGKAPKLLIYAASSLQSGVPSRFSGSGSGTDFTLTISSLQPEDFATYYCQQGDQYPLTFGQGTNLEIK",234
10,"ab46 (scFv, V domains shown) VH: EVQLVESGAEVKKPGESLKISCKGSGYTFTRYWIGWVRQMPGKGLEWMGIIYPGDSDTRYSPSFQGHVTISADKSISTAYLQWNSLKASDTAMYYCARLPQYCSSGVCHRWFDPWGQGTLVTVSS VL: EIVLTQSPSSVSASVGDRVTITCRASQGISSWLAWYQQKPGKAPKLLIYAASSLQSGVPSRFSGSGSGTDFTLTISSLQPEDFATYYCQQGHSFPYTFGQGTNLEIK",106
11,"ab43 (scFv, V domains shown) VH: EVQLVESGAEVKKPGESLKISCKGSGYTFTRYWIGWVRQMPGKGLEWMGIIYPGDSDTRYSPSFQGHVTISADKSISTAYLQWNSLKASDTAMYYCARLPQYCSAGVCFRWFDPWGQGTLVTVSS VL: EIVLTQSPSSVSASVGDRVTITCRASQGISSWLAWYQQKPGKAPKLLIYAASSLQSGVPSRFSGSGSGTDFTLTISSLQPEDFATYYCQQGHSFPYTFGQGTNLEIK",216
12,"ab44 (scFv, V domains shown) VH: EVQLVESGAEVKKPGESLKISCKGSGYTFTRYWIGWVRQMPGKGLEWMGIIYPGDLDVRYSPSFQGHVTISADKSISTAYLQWNSLKASDTAMYYCARLPQYCREGKCHRWFDPWGQGTLVTVSS VL: EIVLTQSPSSVSASVGDRVTITCRASQGIRNWLAWYQQKPGKAPKLLIYAASSLQSGVPSRFSGSGSGTDFTLTISSLQPEDFATYYCQQGDQDPLTFGQGTNLEIK",28.2
13,"ab45 (scFv, V domains shown) VH: EVQLVESGAEVKKPGESLKISCKGSGYTFTRYWIGWVRQMPGKGLEWMGIIYPGDSDTRYSPSFQGHVTISADKSISTAYLQWNSLKASDTAMYYCARLPQYCSSGVCQRWFDPWGQGTLVTVSS VL: EIVLTQSPSSVSASVGDRVTITCRASQGISSWLAWYQQKPGKAPKLLIYAASSLQSGVPSRFSGSGSGTDFTLTISSLQPEDFATYYCQQGNQFPYTFGQGTNLEIK",37.3
14,"ab50 (scFv, V domains shown) VH: EVQLVESGAEVKKPGESLKISCKGSGYTFTRYWIGWVRQMPGKGLEWMGIIYPGDADVRYSPSFQGHVTISADKSISTAYLQWNSLKASDTAMYYCARLPQYCSSGSCFRWFDPWGQGTLVTVSS VL: EIVLTQSPSSVSASVGDRVTITCRASQGISSWLAWYQQKPGKAPKLLIYAASSLQSGVPSRFSGSGSGTDFTLTISSLQPEDFATYYCQQGYSTPYTFGQGTNLEIK",165
15,"ab42 (scFv, V domains shown) VH: EVQLVESGAEVKKPGESLKISCKGSGYTFTRYWIGWVRQMPGKGLEWMGIIYPGDSDTRYSPSFQGHVTISADKSISTAYLQWNSLKASDTAMYYCARLPQYCQSGVCKRWFDPWGQGTLVTVSS VL: EIVLTQSPSSVSASVGDRVTITCRASQGIRSWLAWYQQKPGKAPKLLIYAASSLQSGVPSRFSGSGSGTDFTLTISSLQPEDFATYYCQQGDQYPLTFGQGTNLEIK",721
16,"ab33 (scFv, V domains shown) VH: EVQLVESGAEVKKPGESLKISCKGSGYTFTRYWIGWVRQMPGKGLEWMGIIYPGDSDTRYSPSFQGHVTISADKSISTAYLQWNSLKASDTAMYYCARLPQYCRAGKCKRWFDPWGQGTLVTVSS VL: EIVLTQSPSSVSASVGDRVTITCRASQGISSWLAWYQQKPGKAPKLLIYAASSLQSGVPSRFSGSGSGTDFTLTISSLQPEDFATYYCQQGNQYPYTFGQGTNLEIK",33.4
17,"ab35 (scFv, V domains shown) VH: EVQLVESGAEVKKPGESLKISCKGSGYTFTRYWIGWVRQMPGKGLEWMGIIYPGDADTRYSPSFQGHVTISADKSISTAYLQWNSLKASDTAMYYCARLPQYCSRGVCQRWFDPWGQGTLVTVSS VL: EIVLTQSPSSVSASVGDRVTITCRASQGISSWLAWYQQKPGKAPKLLIYAASSLQSGVPSRFSGSGSGTDFTLTISSLQPEDFATYYCQQGNQFPYTFGQGTNLEIK",39
18,"ab14 (scFv, V domains shown) VH: QVQLQQSGPGLVKPSQTLSLTCAISGDSVSSNSAAWNWIRQSPARGLEWLGRTYYRSRWYNDYAISMKSRITINPDTSKNQFSLQLESVTPEDTAVYYCAREIRGFDYWGQGTLVTVSS VL: QSVLTQPPSASGSPGQSVTISCTGTSSDVGAYNFVSWYQHHPGKAPKLIIYDFNKRPSGVPDRFSGSKSGNTASLTVSGLQADDEADYYCSSYAGSNNFDVVFGGGTKLTVL",154
19,"ab23 (scFv, V domains shown) VH: EVQLVQSGAEVKKPGSSVKVSCRSSGGTFSTYGITWVRQAPGQGLEWMGRIIPSLGIPNYAQKFQGRVTITADTSVSTAWMELSSLESDDTAIYYCARENIDLATNDFWGQGTLVTVSS VL: QSALTQPPSASGSPGQSVTISCTGTSRDIGAYGYVSWYQQVPGKAPKLIIYEVRNRPSGVSSRFSGSKSGNTASLTISGLQAEDEADYYCSSYTSSSTLDVVFGGGTKLTVL",116
